From paper PMC10950269

Target: Recombinant truncated NA protein from the A/Perth/16/2009 H3N2 strain of influenza virus (influenza A virus A/Perth/16/2009 (H3N2))
Assay: SEC

Recombinant truncated NA protein from the A/Perth/16/2009 H3N2 strain of influenza virus (enzyme)
stoichiometry N: 4
